In one experiment the target is T1, VEGF165 (UniProt P15692-4 27-191).
T1 construct: also called VEGF165 (Humanzyme, HZ-1153)
Briefly: competition ELISA: Fab preincubated with VEGF165, free VEGF165 bound to coated rhVEGFR-1-Fc detected; sheet title 'Competition ELISA VEGFR1-Fc, 8 pM VEGF165'. The procedure:
96-well-Plates (Maxisorp Nunc-Immoplates) were coated with 50 μL/well rhVEGFR-1-Fc (R&D #321-FL-050) at a final concentration of 1 μg/ml in 200 mM NaHC0₃, pH 9.4 for 1 hour at room temperature.
Meanwhile, antibody Fab fragments of different concentrations were preincubated with VEGF for form an antibody Fab-VEGF premix as follows: A dilution series of antibody Fab fragment was prepared by adding 280 μl of a solution of antibody Fab fragments (409.6 nM antibody in PBST-1% BSA) into the wells of the first column of a round bottom 96-well PS plate. The individual wells of columns 2-12 of the same plate were filled with 140 μl PBST-1% BSA. Subsequently, 1:2 dilutions were performed by transferring 140 μl of the antibody solution into the next column, thorough mixing and proceed with transferring 140 μl of this diluted antibody solution to the next column. This is repeated until column 11. Excess of 140 μl were discarded so that all wells comprise 140 μl. Column 12 served as the control (blank). […] 50 μl of the dilution series of the respective antibody Fab fragment were added to the VEGF121, or VEGF165, respectively; mixed thoroughly and incubated for 1.5 hours at room temperature.
The rhVEGFR-1-Fc coated plates were washed two times with PBST and blocked for 45 min with 200 μl of 2% MPBST. After washing off the MPBST solution twice with PBST, 50 μl of the antibody Fab-VEGF premix were added to the plate and incubated for 1.5 hours at room temperature. Subsequently, the plates were washed twice with PBST. Then, 50 μl of a solution comprising biotinylated anti-VEGF antibody (R&D, BAF293; 1:2000 dilution in PBST) and SA-HRP (KPL, 14-30-00; 1:2000 dilution in PBST) was added and incubated for 30 min at room temperature. After 6× washing with PBST, 50 μl of TMB substrate solution (two-component HRP substrate (KPL, 34021); used at room temperature) was added and incubated for 30 min at room temperature. 50 μl of 1N H₂SO₄ was added and absorbance was read at 450 nm.

The target of experiment [1] is T2, human IL-1 beta (PeproTech 200-01B) (human, UniProt P01584 117-269).
T2 construct: As printed it covers only the N-terminal part of the precursor, so it was not used; also called huIL-1 beta; IL1β
Briefly: SPR, Fab captured via anti-Fab antibody, human IL-1beta injected, 1:1 Langmuir fit. The procedure: An anti-Fab capturing antibody (GE Healthcare 28958325) was immobilized to a Series S Sensor Chip C1 (GE Healthcare 29104990) using standard amine coupling chemistry resulting in a surface density of approximately 500 resonance units (RU). The bispecific anti-VEGF/anti-IL-1beta Fab fragment was captured to the surface with resulting capture levels of approximately 20 RU. A dilution series ranging from 0.74 to 60 nM (1:3 dilution) of either human IL-1 beta (PeproTech 200-01B) or cynomolgus IL-1 beta (Sino Biological 90010-CNAE) was injected for 90 s, dissociation was monitored for at least 600 s at a flow rate of 30 μl/min. The surface was regenerated by two consecutive injections of 10 mM Glycine pH 2.1 for 60 s each. Bulk refractive index differences were corrected by subtracting blank injections and by subtracting the response obtained from the control flow cell without captured bispecific anti-VEGF/anti-IL-1beta Fab fragment. Curve fitting was performed using the 1:1 Langmuir binding model within the Biacore evaluation software.
Binding kinetics to VEGF and IL-1beta for the candidate antibodies were assessed as described in Example 3 using the indicated bispecific anti-VEGF/anti-IL-1beta Fab fragments (amino acid sequence as illustrated in Table 3). For comparison, antigen binding kinetics of prior art anti-VEGF/anti-IL-1beta antibody 0032, a full length IgG antibody, as disclosed in WO2016/075034 are depicted.
On the technique in general: In SPR one partner is held on a chip, and binding of the other changes the refractive index at the surface.

Experiment [2] addresses T3, human VEGF121 (human, UniProt P15692-9 27-147).
T3 construct: No tag is stated for these preparations; Kept apart from VEGF121-His; also called HuVEGF121
T3 sequence (looked up): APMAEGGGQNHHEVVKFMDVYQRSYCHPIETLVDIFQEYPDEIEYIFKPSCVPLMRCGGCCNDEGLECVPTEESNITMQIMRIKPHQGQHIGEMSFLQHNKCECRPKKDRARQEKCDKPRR
Briefly: SPR competition: Fab preincubated with 50 nM VEGF121, injected over immobilised hVEGFR2 (competitor); in presence of IL-1beta. On the procedure: (§1) As running and dilution buffer, HBS-P+(10 mM HEPES, 150 mM NaCl pH 7.4, 0.05% Surfactant P20) was used.
(§2) For assessing VEGF-receptor binding inhibition, a final concentration of 200 nM of R07200394 or 400 nM antibody 0032 was preincubated with 50 nM VEGF121. For assessing IL-1beta-receptor binding inhibition, a final concentration of 200 nM of R07200394 or 200 nM antibody 0032 was with preincubated with 50 nM IL-1beta. Samples were diluted (1:2) in the corresponding 50 nM VEGF121 or IL-1beta solution.
(§3) The antibody/ligand mixtures were injected onto the VEGFR2 or IL-1R1 surface for 60 s at a flow rate of 5 μl/min. After a dissociation phase for 60 s, the VEGFR2 surface was regenerated by injecting 5 mM NaOH for 60 s, whereas the IL-1R1 surface was regenerated by injecting 10 mM Glycine pH 3.0 followed by 5 mM NaOH for 60 s each. Bulk refractive index differences were corrected by subtracting blank injections and by subtracting the response obtained from the blank control flow cell. For evaluation, the binding response 5 seconds after inject end was taken. The derived response in RU was transformed to a binding response relative to the initial signal corresponding to the ligand(s) without antibody. IC50 values were calculated using a 4 parameter logistic model (XLfit, ID Business Solutions Ltd.)

Experiment [3] has as its target T3, human VEGF121. Briefly: SPR competition: Fab (from 200 nM, 1:2 dilutions) preincubated with 50 nM VEGF121, injected over immobilised hVEGFR2 (competitor); without IL-1beta. The procedure:
as §1, §2, §3

B1: bispecific anti-VEGF/anti-IL-1beta Fab fragment RO7200394 (Fab, V domains shown)
VH: DEQLVESGGGLVKPGGSLRLSCAAEGMVFKWNDMSWVRQAPGKGLEWVGSISKKGDHKYLNTKFIGRFTISRDNEKDTLYLQMNSLRAEDTAVYYCAKDVGFFDIWGQGTLVTVSS
VL: AIYMHQEPSSLSASVGDRVTITCHGSYWLSSLVAWYQQKPGKAPKLLIYDAKYKHLGVPSRFSGSKEDQEFTLTISSLQPEDFATYYCQQYRYHPYTFGHGTKVEIKR
notes: same variable domains as 1HVL12.85; also called R07200394
By Kd is commonly meant the concentration at which binding is half-saturated. Low values mean a tighter complex, high ones a looser complex. The koff is the first-order rate constant of dissociation. Read a high koff as fast dissociation. For orientation: kon means the second-order rate constant of association. Broadly, the IC50 is the concentration that gives 50% inhibition. On to B1, for which the “IC50 (read off the curve)” value in the experiment with VEGF165 was around 0.09 nM. In experiment [1], the Kd came to 0.021 nM, the koff was determined as 0.000102 s⁻¹, the kon was found to be 4.73e+06 M⁻¹ s⁻¹ and the “t 1/2” value came to 1.9 h. Further, the IC50 with human VEGF121 [2] came to 39 nM. The molecule further came in with an IC50 in the experiment with human VEGF121 [3] of 44 nM.

(Values after patent publication US20200199214A1 (Hoffmann-La Roche, published 2020).)
